Experimental data taken from patent publication US8333970B2, “Methods of monitoring the efficacy of anti-CD40 antibodies in treating a subject having an inflammatory or autoimmune disease” (Novartis AG, priority 2005, dated 2012).
“Also recorded” adds a separate entry of the source.

B1: CD40L: CD40 ligand used as stimulus, presented on transfected, formaldehyde fixed CHO cells (protein)
chain: MIETYNQTSPRSAATGLPISMKIFMYLLTVFLITQMIGSALFAVYLHRRLDKIEDERNLHEDFVFMKTIQRCNTGERSLSLLNCEEIKSQFEGFVKDIMLNKEETKKENSFEMQKGDQNPQIAAHVISEASSKTTSVLQWAEKGYYTMSNNLVTLENGKQLTVKRQGLYYIYAQVTFCSNREASSQAPFIASLCLKSPGRFERILLRAANTHSSAKPCGQQSIHLGGVFELQPGASVFVNVTDPSQVSHGTGFTSFGLLKL
modifications: expressed on fixed CHO cells

Columns and labels:
[1] = target: cell-surface CD40 (Homo sapiens, UniProt P25942); test: Flow cytometric (FACS) assay of CD40 binding and CD40-ligand blocking
Chain of cell-surface CD40 (P25942 21-277): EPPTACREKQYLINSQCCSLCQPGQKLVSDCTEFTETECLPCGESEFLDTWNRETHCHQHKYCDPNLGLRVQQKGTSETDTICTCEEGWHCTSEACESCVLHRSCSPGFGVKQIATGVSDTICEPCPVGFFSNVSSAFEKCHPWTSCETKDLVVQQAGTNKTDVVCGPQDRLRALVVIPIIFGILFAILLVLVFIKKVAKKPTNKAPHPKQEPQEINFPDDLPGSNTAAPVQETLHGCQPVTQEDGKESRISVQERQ
Excerpt: (§1) 2, 2000, and PCT International Application No. PCT/US01/30857, also titled “Human Anti-CD40 Antibodies,” filed Oct. 2, 2001, both of which are herein incorporated by reference in their entirety.

[2] = system: CD40-expressing target cells; test: Antibody dependent cellular cytotoxicity (ADCC); format: cell-based; details: native antibodies
Excerpt: as §1
Clones from 7 other hybridomas were identified as having antagonistic activity. Based on their relative antagonistic potency and ADCC activities, two hybridoma clones were selected for further evaluation (Table 1 below). They are named 131.2F8.5.9 (5.9) and 153.8E2.D10.D6.12.12 (12.12).

[3] = target: soluble CD40 (Homo sapiens, UniProt P25942); test: ELISA-type assay, binding to soluble CD40; details: ELISA-type assays
Chain of soluble CD40 (P25942 21-193 limits assumed): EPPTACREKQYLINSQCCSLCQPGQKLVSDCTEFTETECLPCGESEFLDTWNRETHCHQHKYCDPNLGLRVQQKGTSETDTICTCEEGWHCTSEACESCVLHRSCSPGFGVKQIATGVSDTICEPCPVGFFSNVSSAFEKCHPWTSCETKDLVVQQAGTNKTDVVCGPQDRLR
Excerpt: as §1

[4] = system: primary cancer cells from NHL patients; test: ADCC on primary cancer cells; format: cell-based, human; details: in vitro
Excerpt: (§2) 4, 2003, Nov. 26, 2003, and Apr. 27, 2004, and assigned U.S. Patent Application Nos. 60/517,337 , 60/525,579, and 60/565,710, respectively, and International Patent Application No. PCT/US2004/037152, also entitled “Antagonist Anti-CD40 Monoclonal Antibodies and Methods for Their Use,” filed Nov. 4, 2004; the contents of each of which are herein incorporated by reference in their entirety.

[5] = system: B cells from normal human subjects; test: In vitro proliferation of normal human B cells / lymphocytes; format: cell-based
Excerpt: as §1, §2

[6] = system: cancer cells from NHL and CLL patients; test: In vitro CD40 ligand-mediated proliferation of patient cancer cells; format: cell-based, human
Excerpt: as §2

[7] = system: monocytes; test: CD40L-induced cytokine secretion, Meso Scale Discovery multi-array; format: cell-based, human; details: monocytes, Donor 1, 24 hours
Experimental: (§3) Cells (1×10^5 cells per well) were cultured in a 96-well plate in the presence or absence of CD40L ([…], formaldehyde fixed CHO cells, 2×10^5 per well). […] Production of hIL-6, hIL-8, hIL-10, hTNF-α; hGM-CSF, hIL-1b, hIL-12p70, MCP-1, and MIP-1β beta was measured by Meso Scale Discovery® multi-array system (Meso Scale Discovery, Gaithersburg, Md.).

[8] = system: normal B cells; test: as above; format: cell-based, human; details: normal B cells
Experimental: as §3

Row | Molecule | specific binding to human CD40 ([1]; FACS analysis) | displacement of CD40-ligand pre-bound to cell surface CD40 ([1]; flow cytometric assays) | prevention of CD40-ligand binding to cell-surface CD40 ([1]; flow cytometric assays) | ADCC activity, killing of CD40-expressing target cells [2] | binding to soluble CD40 [3] | killing of primary cancer cells by ADCC [4] | effect on CD40 ligand-mediated proliferation of normal B cells ([5]; in vitro) | induction of proliferation of human lymphocytes (agonist activity) ([5]; lymphocytes from normal subjects, antibody alone) | CD40 ligand-mediated proliferation of cancer cells [6] | CD40L-induced hGM-CSF secretion, folds of induction over background [7] | CD40L-induced hIL1-b secretion, folds of induction over background [7] | CD40L-induced hIL-12p70 secretion, folds of induction over background [7] | CD40L-induced hGM-CSF secretion, folds of induction over background ([8]; Donor 1, 24 hours) | CD40L-induced hIL-1b secretion, folds of induction over background ([8]; Donor 1, 24 hours) | CD40L-induced hIL-12p70 secretion, folds of induction over background ([8]; Donor 1, 24 hours) | CD40L-induced hIL-1b secretion, folds of induction over background ([8]; Donor 2, 24 hours) | CD40L-induced hGM-CSF secretion, folds of induction over background ([8]; Donor 3, 24 hours) | CD40L-induced hIL-1b secretion, folds of induction over background ([8]; Donor 3, 24 hours) | CD40L-induced hIL-12p70 secretion, folds of induction over background ([8]; Donor 3, 24 hours)
1 | CHIR-5.9: fully human anti-CD40 monoclonal antibody of the IgG1 isotype, hybridoma 131.2F8.5.9, ATCC PTA-5542, SEQ ID NO:6 and 7 | bind specifically to human CD40 | displace the pre-bound CD40-ligand; also recorded: can compete off CD40-ligand pre-bound to cell surface CD40 | prevent the binding of CD40-ligand to cell-surface CD40; also recorded: can prevent CD40-ligand binding | have ADCC activity; also recorded: able to kill CD40-expressing target cells | bind soluble CD40 | kill primary cancer cells from NHL patients by ADCC | act as antagonist anti-CD40 antibodies; also recorded: inhibit in vitro CD40 ligand-mediated proliferation of normal B cells | do not induce strong proliferation | inhibiting in vitro CD40 ligand-mediated proliferation of cancer cells from NHL and CLL patients | – | – | – | – | – | – | – | – | – | –
2 | B1 | – | – | – | – | – | – | – | – | – | no induction | no induction | no induction | no induction | no induction | no induction | no induction | no induction | no induction | no induction
